T1: HTRA4, P83105
T1 sequence (P83105 378-476, limits assumed, looked up): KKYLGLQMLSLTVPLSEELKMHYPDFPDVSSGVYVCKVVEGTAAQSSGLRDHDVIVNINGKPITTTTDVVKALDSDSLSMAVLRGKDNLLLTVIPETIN

T2: FRMPD1, Q5SYB0
T2 sequence (Q5SYB0 52-145, limits assumed, looked up): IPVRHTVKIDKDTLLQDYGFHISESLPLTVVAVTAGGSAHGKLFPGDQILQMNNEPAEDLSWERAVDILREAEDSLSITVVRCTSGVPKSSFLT

T3: CARD11, Q9BXL7
T3 sequence (Q9BXL7 662-765, limits assumed, looked up): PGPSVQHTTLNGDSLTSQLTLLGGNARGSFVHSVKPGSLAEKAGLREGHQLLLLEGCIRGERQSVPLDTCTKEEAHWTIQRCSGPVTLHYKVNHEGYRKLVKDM

T4: APBA1_2, Q02410
T4 sequence (Q02410 742-832, limits assumed, looked up): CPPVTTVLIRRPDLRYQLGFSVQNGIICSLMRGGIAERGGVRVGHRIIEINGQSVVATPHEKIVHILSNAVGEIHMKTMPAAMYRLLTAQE

T5: PDZD7_3, Q9H5P4
T5 sequence (Q9H5P4 857-944, limits assumed, looked up): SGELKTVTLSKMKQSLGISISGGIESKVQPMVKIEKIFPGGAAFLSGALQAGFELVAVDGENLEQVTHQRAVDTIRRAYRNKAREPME

T6: SHANK1, Q9Y566
T6 sequence (Q9Y566 658-767, limits assumed, looked up): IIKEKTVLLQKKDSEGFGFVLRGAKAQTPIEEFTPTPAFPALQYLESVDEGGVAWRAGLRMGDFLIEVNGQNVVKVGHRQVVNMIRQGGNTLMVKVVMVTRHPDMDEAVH

T7: NHERF3_4, Q5T2W1
T7 sequence (Q5T2W1 373-468, limits assumed, looked up): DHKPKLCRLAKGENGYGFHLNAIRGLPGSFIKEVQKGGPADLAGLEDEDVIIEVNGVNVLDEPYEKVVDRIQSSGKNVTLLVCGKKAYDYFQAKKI

T8: PARD3B_1, Q8TEW8
T8 sequence (Q8TEW8 196-299, limits assumed, looked up): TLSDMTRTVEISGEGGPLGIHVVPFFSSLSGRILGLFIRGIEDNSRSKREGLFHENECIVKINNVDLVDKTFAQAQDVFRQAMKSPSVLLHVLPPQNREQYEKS

T9: GRIP1_4, Q9Y3R0
T9 sequence (Q9Y3R0 467-571, limits assumed, looked up): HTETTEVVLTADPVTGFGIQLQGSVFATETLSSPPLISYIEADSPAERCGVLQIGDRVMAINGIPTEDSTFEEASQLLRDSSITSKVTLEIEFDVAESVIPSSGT

T10: NHERF3_3, Q5T2W1
T10 sequence (Q5T2W1 238-333, limits assumed, looked up): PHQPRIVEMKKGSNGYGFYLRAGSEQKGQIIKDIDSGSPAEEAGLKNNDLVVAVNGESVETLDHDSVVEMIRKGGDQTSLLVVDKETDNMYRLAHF

T11: LIN7B, Q9HAP6
T11 sequence (Q9HAP6 88-185, limits assumed, looked up): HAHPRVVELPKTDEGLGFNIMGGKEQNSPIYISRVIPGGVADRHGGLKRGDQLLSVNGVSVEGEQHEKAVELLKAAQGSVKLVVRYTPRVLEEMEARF

T12: DVL3, Q92997
T12 sequence (Q92997 244-331, limits assumed, looked up): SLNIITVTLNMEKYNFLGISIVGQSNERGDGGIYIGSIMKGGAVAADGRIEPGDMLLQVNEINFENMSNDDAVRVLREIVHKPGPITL

T13: MPP2, Q14168
T13 sequence (Q14168 180-250, limits assumed, looked up): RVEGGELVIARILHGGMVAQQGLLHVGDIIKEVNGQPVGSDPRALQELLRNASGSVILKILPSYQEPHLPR

B1: FAT3, Q8TDW7 (peptide)
chain: FVETQHQTQV
B2: HPV33-E6, P06427 (peptide)
chain: SRSRRRETAL
B3: NET1, Q7Z628 (peptide)
chain: SGGKRKETLV

These binders were tested against GRIP2_4, Q9C0E4 (assay: holdup assay). Conditions: plain residues with an end cap or a label only (N-terminal biotin on a linker: ttds).
Parameters: key: below the threshold = too weak to quantify, mostly under pKd 3.1 to 4

GRIP2_4, Q9C0E4, sequence (Q9C0E4 446-548): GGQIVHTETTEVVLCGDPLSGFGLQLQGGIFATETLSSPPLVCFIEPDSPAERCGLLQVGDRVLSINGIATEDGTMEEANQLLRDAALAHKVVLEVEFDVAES

Binder | pKd
B1 | below the threshold
B2 | below the threshold
B3 | below the threshold

What follows are binders tested against GOPC, Q9HD26 (assay: holdup assay). Conditions: plain residues with an end cap or a label only (N-terminal biotin on a linker: ttds).
Parameters: key: below the threshold = too weak to quantify, mostly under pKd 3.1 to 4

Binder | pKd
B1 | 3.76
B2 | 3.97
B3 | 3.82

What follows are binders tested against NHERF4_4, Q86UT5 (assay: holdup assay). Conditions: plain residues with an end cap or a label only (N-terminal biotin on a linker: ttds).
Parameters: key: below the threshold = too weak to quantify, mostly under pKd 3.1 to 4

NHERF4_4, Q86UT5, sequence (Q86UT5 464-550): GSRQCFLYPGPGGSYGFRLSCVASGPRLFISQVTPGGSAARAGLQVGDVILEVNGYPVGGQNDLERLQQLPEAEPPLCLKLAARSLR

Binder | pKd
B1 | below the threshold
B2 | below the threshold
B3 | below the threshold

These binders were tested against T1, HTRA4, P83105 (assay: holdup assay). Conditions: plain residues with an end cap or a label only (N-terminal biotin on a linker: ttds).
Parameters: key: below the threshold = too weak to quantify, mostly under pKd 3.1 to 4

Binder | pKd
B1 | below the threshold
B2 | below the threshold
B3 | below the threshold

What follows are binders tested against T2, FRMPD1, Q5SYB0 (assay: holdup assay). Conditions: plain residues with an end cap or a label only (N-terminal biotin on a linker: ttds).
Parameters: key: below the threshold = too weak to quantify, mostly under pKd 3.1 to 4

Binder | pKd
B1 | below the threshold
B2 | below the threshold
B3 | below the threshold

These binders were tested against T3, CARD11, Q9BXL7 (assay: holdup assay). Conditions: plain residues with an end cap or a label only (N-terminal biotin on a linker: ttds).
Parameters: key: below the threshold = too weak to quantify, mostly under pKd 3.1 to 4

Binder | pKd
B1 | below the threshold
B2 | below the threshold
B3 | below the threshold

The binders below were run against T4, APBA1_2, Q02410 (assay: holdup assay). Conditions: plain residues with an end cap or a label only (N-terminal biotin on a linker: ttds).
Parameters: key: below the threshold = too weak to quantify, mostly under pKd 3.1 to 4

Binder | pKd
B1 | 3.9
B2 | below the threshold
B3 | 3.53

The binders below were run against T5, PDZD7_3, Q9H5P4 (assay: holdup assay). Conditions: plain residues with an end cap or a label only (N-terminal biotin on a linker: ttds).
Parameters: key: below the threshold = too weak to quantify, mostly under pKd 3.1 to 4

Binder | pKd
B1 | 4.11
B2 | 4.65
B3 | 4.54

What follows are binders tested against GORASP2, Q9H8Y8 (assay: holdup assay). Conditions: plain residues with an end cap or a label only (N-terminal biotin on a linker: ttds).
Parameters: key: below the threshold = too weak to quantify, mostly under pKd 3.1 to 4

Binder | pKd
B1 | below the threshold
B2 | 4.26
B3 | 4.03

What follows are binders tested against T6, SHANK1, Q9Y566 (assay: holdup assay). Conditions: plain residues with an end cap or a label only (N-terminal biotin on a linker: ttds).
Parameters: key: below the threshold = too weak to quantify, mostly under pKd 3.1 to 4

Binder | pKd
B1 | 3.63
B2 | 3.51
B3 | below the threshold

Each binder was assayed against T7, NHERF3_4, Q5T2W1 (assay: holdup assay). Conditions: plain residues with an end cap or a label only (N-terminal biotin on a linker: ttds).
Parameters: key: below the threshold = too weak to quantify, mostly under pKd 3.1 to 4

Binder | pKd
B1 | below the threshold
B2 | 3.97
B3 | below the threshold

The binders below were run against T8, PARD3B_1, Q8TEW8 (assay: holdup assay). Conditions: plain residues with an end cap or a label only (N-terminal biotin on a linker: ttds).
Parameters: key: below the threshold = too weak to quantify, mostly under pKd 3.1 to 4

Binder | pKd
B1 | below the threshold
B2 | 3.43
B3 | 3.52

The binders below were run against T9, GRIP1_4, Q9Y3R0 (assay: holdup assay). Conditions: plain residues with an end cap or a label only (N-terminal biotin on a linker: ttds).
Parameters: key: below the threshold = too weak to quantify, mostly under pKd 3.1 to 4

Binder | pKd
B1 | below the threshold
B2 | below the threshold
B3 | below the threshold

What follows are binders tested against SCRIB_3, Q14160 (assay: holdup assay). Conditions: plain residues with an end cap or a label only (N-terminal biotin on a linker: ttds).
Parameters: key: below the threshold = too weak to quantify, mostly under pKd 3.1 to 4

SCRIB_3, Q14160, sequence (Q14160 999-1103): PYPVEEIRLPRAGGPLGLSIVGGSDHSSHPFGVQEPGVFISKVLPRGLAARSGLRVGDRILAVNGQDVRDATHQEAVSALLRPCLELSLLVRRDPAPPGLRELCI

Binder | pKd
B1 | 4.02
B2 | 5.3
B3 | 4.31

The binders below were run against T10, NHERF3_3, Q5T2W1 (assay: holdup assay). Conditions: plain residues with an end cap or a label only (N-terminal biotin on a linker: ttds).
Parameters: key: below the threshold = too weak to quantify, mostly under pKd 3.1 to 4

Binder | pKd
B1 | below the threshold
B2 | below the threshold
B3 | below the threshold

These binders were tested against TJP2_1, Q9UDY2 (assay: holdup assay). Conditions: plain residues with an end cap or a label only (N-terminal biotin on a linker: ttds).
Parameters: key: below the threshold = too weak to quantify, mostly under pKd 3.1 to 4

TJP2_1, Q9UDY2, sequence (Q9UDY2 24-128): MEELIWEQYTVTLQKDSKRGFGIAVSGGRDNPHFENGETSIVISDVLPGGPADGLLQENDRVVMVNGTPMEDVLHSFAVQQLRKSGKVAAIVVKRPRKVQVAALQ

Binder | pKd
B1 | below the threshold
B2 | 4.01
B3 | 3.8

These binders were tested against DLG1_3, Q12959 (assay: holdup assay). Conditions: plain residues with an end cap or a label only (N-terminal biotin on a linker: ttds).
Parameters: key: below the threshold = too weak to quantify, mostly under pKd 3.1 to 4

DLG1_3, Q12959, sequence (Q12959 457-571): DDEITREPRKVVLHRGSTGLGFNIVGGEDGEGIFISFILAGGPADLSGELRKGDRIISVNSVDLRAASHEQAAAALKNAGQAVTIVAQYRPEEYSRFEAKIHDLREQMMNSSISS

Binder | pKd
B1 | 3.95
B2 | 4.56
B3 | 4.44

What follows are binders tested against T11, LIN7B, Q9HAP6 (assay: holdup assay). Conditions: plain residues with an end cap or a label only (N-terminal biotin on a linker: ttds).
Parameters: key: below the threshold = too weak to quantify, mostly under pKd 3.1 to 4

Binder | pKd
B1 | below the threshold
B2 | 3.72
B3 | 3.81

What follows are binders tested against T12, DVL3, Q92997 (assay: holdup assay). Conditions: plain residues with an end cap or a label only (N-terminal biotin on a linker: ttds).
Parameters: key: below the threshold = too weak to quantify, mostly under pKd 3.1 to 4

Binder | pKd
B1 | 3.65
B2 | below the threshold
B3 | below the threshold

Each binder was assayed against LDB3, O75112 (assay: holdup assay). Conditions: plain residues with an end cap or a label only (N-terminal biotin on a linker: ttds).
Parameters: key: below the threshold = too weak to quantify, mostly under pKd 3.1 to 4

LDB3, O75112, sequence (O75112 1-94): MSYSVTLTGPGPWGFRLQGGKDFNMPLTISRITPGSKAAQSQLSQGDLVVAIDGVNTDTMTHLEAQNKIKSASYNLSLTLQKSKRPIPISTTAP

Binder | pKd
B1 | below the threshold
B2 | below the threshold
B3 | below the threshold

These binders were tested against T13, MPP2, Q14168 (assay: holdup assay). Conditions: plain residues with an end cap or a label only (N-terminal biotin on a linker: ttds).
Parameters: key: below the threshold = too weak to quantify, mostly under pKd 3.1 to 4

Binder | pKd
B1 | below the threshold
B2 | below the threshold
B3 | below the threshold

What follows are binders tested against LNX1_2, Q8TBB1 (assay: holdup assay). Conditions: plain residues with an end cap or a label only (N-terminal biotin on a linker: ttds).
Parameters: key: below the threshold = too weak to quantify, mostly under pKd 3.1 to 4

LNX1_2, Q8TBB1, sequence (Q8TBB1 371-470): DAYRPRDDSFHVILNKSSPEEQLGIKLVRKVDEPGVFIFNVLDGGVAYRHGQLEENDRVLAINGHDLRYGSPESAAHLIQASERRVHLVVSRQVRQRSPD

Binder | pKd
B1 | below the threshold
B2 | below the threshold
B3 | 3.62

Each binder was assayed against PDLIM1, O00151 (assay: holdup assay). Conditions: plain residues with an end cap or a label only (N-terminal biotin on a linker: ttds).
Parameters: key: below the threshold = too weak to quantify, mostly under pKd 3.1 to 4

PDLIM1, O00151, sequence (O00151 1-87): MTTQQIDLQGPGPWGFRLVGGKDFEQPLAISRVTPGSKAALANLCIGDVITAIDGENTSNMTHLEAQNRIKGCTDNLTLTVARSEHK

Binder | pKd
B1 | below the threshold
B2 | below the threshold
B3 | below the threshold

What follows are binders tested against AHNAK1, Q09666 (assay: holdup assay). Conditions: plain residues with an end cap or a label only (N-terminal biotin on a linker: ttds).
Parameters: key: below the threshold = too weak to quantify, mostly under pKd 3.1 to 4

AHNAK1, Q09666, sequence (Q09666 4-100): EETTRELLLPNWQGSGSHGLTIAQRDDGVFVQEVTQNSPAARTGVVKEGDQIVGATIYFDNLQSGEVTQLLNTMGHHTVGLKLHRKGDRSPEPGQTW

Binder | pKd
B1 | 3.52
B2 | 3.62
B3 | 3.56

Reference: publication PMC9482650, “Quantitative fragmentomics allow affinity mapping of interactomes” (Nature Communications, 2022)
